Assay results from patent US20120301477A1.

Target: CCR9 (chemokine (C-C motif) receptor 9) (human) (UniProt P51686)
Test: cell-based or functional assay

Sequence of UniProt P51686 (P51686 whole entry): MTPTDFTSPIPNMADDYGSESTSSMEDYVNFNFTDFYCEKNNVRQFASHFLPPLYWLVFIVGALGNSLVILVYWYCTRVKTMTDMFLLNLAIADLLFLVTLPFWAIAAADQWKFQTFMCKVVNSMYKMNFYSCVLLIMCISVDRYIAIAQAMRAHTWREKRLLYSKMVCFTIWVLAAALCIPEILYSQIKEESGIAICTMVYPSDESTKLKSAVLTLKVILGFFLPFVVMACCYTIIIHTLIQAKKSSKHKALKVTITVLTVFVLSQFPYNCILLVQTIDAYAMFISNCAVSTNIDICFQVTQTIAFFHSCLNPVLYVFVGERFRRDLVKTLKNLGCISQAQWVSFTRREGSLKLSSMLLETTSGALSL

impairment of migratory response to CCL25 after CCR9 siRNA, melanoma line ML: 76% | impairment of migratory response to CCL25 after CCR9 siRNA, melanoma line MP: 63%
Substance: Human recombinant CCL25 (from UniProt O15444 24-150) (ligand)
